The supplement of paper PMC10126150
± gives the standard deviation of the averaged measurements.

System: ATP
Experiment: switch fluorescence ratio, 500 uM ATP over buffer (Cy3 cluster intensity, sum of 5 cycles each) (fold (ratio)); higher = stronger signal-on switching upon ATP binding; sequences stand for … in TCGTCGGCAGCGTCAGATGTGTATAAGAGACAGTTTTTTTTTTTTTTTTTTTTTTTTT…TC
Conditions: aptamer strand: ATP DNA aptamer (quencher-CACCTGGGGGAGTATTGCGGAGGAAGG + anchor), 100 nM annealed; ATP concentration: 500 uM
Outline: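 Values give the fluorescence ratio for each switch-domain sequence, averaged from per-cluster ratios of summed target-cycle to summed buffer-cycle Cy3 intensity. The Cy3-labelled switching-strand clusters sat on a modified Illumina MiSeq flow-cell, were annealed to 100 nM quencher-labelled ATP aptamer, and were imaged in selection buffer, then after 15 min with 500 uM ATP at 22 °C. Five cycles ran with NaOH stripping and re-annealing between them, and clusters outside 100-1000 RFU were excluded.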
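Note: ATP exposure 15 min at 22 °C before imaging.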

| Sequence | switch fluorescence ratio |
| --- | --- |
| TTTTTGATGA | 1.02 ± 0.015 |
| TTTTTGATTA | 0.986 ± 0.062 |
| TTTTTGATTT | 1.01 ± 0.036 |
| TTTTTGCATT | 1.038 ± 0.0028 |
| TTTTTGCCGA | 1.01 ± 0.052 |
| TTTTTGCCGG | 1.01 ± 0.014 |
| TTTTTGCGAA | 1.033 ± 0.0011 |
| TTTTTGCGGT | 0.978 ± 0.025 |
| TTTTTGCTGG | 0.99 ± 0.029 |
| TTTTTGCTTA | 0.993 ± 0.013 |
| TTTTTGGAAA | 1.01 ± 0.051 |
| TTTTTGGAGG | 1 ± 0.034 |
| TTTTTGGATT | 1 ± 0.032 |
| TTTTTGGCTA | 1 ± 0.021 |
| TTTTTGTCCA | 1 ± 0.041 |
| TTTTTGTCGT | 0.983 ± 0.025 |
| TTTTTGTTGC | 1.02 ± 0.02 |
| TTTTTTAACG | 0.9973 ± 0.0053 |
| TTTTTTACCC | 1.01 ± 0.028 |
| TTTTTTAGCT | 1.01 ± 0.055 |
| TTTTTTATTG | 0.989 ± 0.029 |
| TTTTTTCATA | 0.9974 ± 0.0093 |

| Sequence | switch fluorescence ratio |
| --- | --- |
| TTTTTTCCGC | 1.34 ± 0.35 |
| TTTTTTCCTT | 1.01 ± 0.034 |
| TTTTTTCGAA | 0.998 ± 0.032 |
| TTTTTTCGAG | 1 ± 0.05 |
| TTTTTTCGCG | 1 ± 0.016 |
| TTTTTTCTGA | 1.01 ± 0.028 |
| TTTTTTCTGT | 1.01 ± 0.029 |
| TTTTTTCTTT | 1.01 ± 0.033 |
| TTTTTTGAAC | 1.01 ± 0.03 |
| TTTTTTGAT | 1.01 ± 0.032 |
| TTTTTTGCAA | 1.06 ± 0.061 |
| TTTTTTGCG | 1.01 ± 0.063 |
| TTTTTTGGAC | 1.01 ± 0.045 |
| TTTTTTGGCG | 1.02 ± 0.15 |
| TTTTTTGGTT | 0.997 ± 0.026 |
| TTTTTTGTAA | 1.01 ± 0.036 |
| TTTTTTGTAG | 1.01 ± 0.016 |
| TTTTTTTAAG | 1 ± 0.018 |
| TTTTTTTCTT | 0.994 ± 0.024 |
| TTTTTTTGCA | 1 ± 0.024 |
| TTTTTTTGTT | 1 ± 0.034 |
